This is an account of results in article PMC11798926 (2024).

Sequences and labels used below:
B1: myc-tagged SynDIG4 (wild type) [rat] / HA-tagged μ2 AP subunit [not stated] (parent complex)
chain 1: MSSEKSGLPDSVPHTSPPPYNAPQPPAEPPIPPPQTAPSSHHHHHHHYHQSGTATLPRLGAGGLASAAAGAQRGPSSSATLPRPPHHAPPGPAAGAPPPGCATLPRMPPDPYLQETRFEGPLPPPPPAAAAPPPPAPAPTAQAPGFVVPTHAGAVGTLPLGGYVAPGYPLQLQPCTAYVPVYPVGTPYASGTPGGPGVTSTLPPPPQGPGLALLEPRRPPHDYMPIAVLTTICCFWPTGIIAIFKAVQVRTALARGDLVSAEIASREARNFSFISLAVGIAAMVLCTILTVVIIIAAQHHENYWDP
chain 2: MIGGLFIYNHKGEVLISRVYRDDIGRNAVDAFRVNVIHARQQVRSPVTNIARTSFFHVKRSNIWLAAVTKQNVNAAMVFEFLYKMCDVMAAYFGKISEENIKNNFVLIYELLDEILDFGYPQNSETGALKTFITQQGIKSQHQTKEEQSQITSQVTGQIGWRREGIKYRRNELFLDVLESVNLLMSPQGQVLSAHVSGRVVMKSYLSGMPECKFGMNDKIVIEKQGKGTADETSKSGKQSIAIDDCTFHQCVRLSKFDSERSISFIPPDGEFELMRYRTTKDIILPFRVIPLVREVGRTKLEVKVVIKSNFKPSLLAQKIEVRIPTPLNTSGVQVICMKGKAKYKASENAIVWKIKRMAGMKESQISAEIELLPTNDKKKWARPPISMNFEVPFAPSGLKVRYLKVFEPKLNYSDHDVIKWVRYIGRSGIYETRC

In the assay the parent is B1. Nature of the assay: co-immunoprecipitation (IP: HA, blot: myc), quantified; HEK293T cells; second bar chart of panel D (SD4 vs AMPA); parent: 100; read off a plot.
Consider chain 1 Y223A, chain 1 I226A, for which the percent of parent is roughly 65 %SD4.
